Like-named read-outs stand apart in the source and are kept apart here.
Key:
FtsZ [1] = target: FtsZ (UniProt P0A9A6); test: single-molecule tracking by TIRF microscopy; small amounts of Cy5-labelled FtsZ (<2 nM) in 1.5 uM Alexa488-FtsZ, or of ZapA-Cy5 in unlabeled ZapA with 1.5 uM Alexa488-FtsZ, on supported bilayers; lifetime from a mono-exponential fit, corrected for photobleaching
FtsZ [2] = target: FtsZ (UniProt P0A9A6); test: FRAP; membrane-bound filament network at steady state (15 min), small area bleached; half-time from fit to I(t) = a(1 - exp(-bt))
FtsZ [3] = target: FtsZ (UniProt P0A9A6); test: single-molecule tracking by TIRF microscopy; small amounts of Cy5-labelled FtsZ (<2 nM) in 1.5 uM Alexa488-FtsZ, or of ZapA-Cy5 in unlabeled ZapA with 1.5 uM Alexa488-FtsZ, on supported bilayers; lifetime from a mono-exponential fit, corrected for photobleaching; remark: listed apart in the source
FtsZ [4] = target: T1, FtsZ (UniProt P0A9A6 1-383, Cy5 or Alexa488 label on part of the protein (30% labelled in the self-organization assay; <2 nM Cy5-labelled FtsZ in 1.5 uM Alexa488-labelled FtsZ for single molecules); labelled site not stated); test: cell-based or functional assay
T1 sequence (looked up): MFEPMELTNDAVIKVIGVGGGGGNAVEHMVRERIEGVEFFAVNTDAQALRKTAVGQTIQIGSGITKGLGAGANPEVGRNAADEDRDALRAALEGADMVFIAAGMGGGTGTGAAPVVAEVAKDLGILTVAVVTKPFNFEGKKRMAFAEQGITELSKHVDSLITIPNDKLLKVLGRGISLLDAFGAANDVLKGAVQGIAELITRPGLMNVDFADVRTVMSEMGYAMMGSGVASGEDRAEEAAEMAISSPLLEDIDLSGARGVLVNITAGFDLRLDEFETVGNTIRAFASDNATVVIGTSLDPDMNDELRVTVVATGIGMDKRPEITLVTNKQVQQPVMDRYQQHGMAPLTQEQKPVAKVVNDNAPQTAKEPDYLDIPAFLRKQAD

[5] = target: the molecule itself; test: SEC; size-exclusion chromatography of ZapA wild type and mutants; conditions not shown

| Molecule | single-molecule lifetime (FtsZ [1]) | FRAP half-time of recovery (FtsZ [2]) | single-molecule lifetime (FtsZ [3]) | EC50 of ZapA for the correlation length of the FtsZ filament network at steady state (ρss) (FtsZ [4]) | EC50 of ZapA for the mean curvature of the FtsZ filament network at steady state (kss) (FtsZ [4]) | stoichiometry N [5] |
| --- | --- | --- | --- | --- | --- | --- |
| ZapA-Cy5 (from UniProt P0ADS2 1-109) (natural protein) | 0.94 s | 3.01 s | 0.95 |  |  |  |
| ZapA wild type (natural protein, UniProt P0ADS2 1-109, looked up, ZapA, FtsZ-associated protein; also called ZapA WT; source: purified protein; protocols in the Supplementary Information) MSAQPVDIQIFGRSLRVNCPPDQRDALNQAADDLNQRLQDLKERTRVTNTEQLVFIAALNISYELAQEKAKTRDYAASMEQRIRMLQQTIEQALLEQGRITEKTNQNFE |  |  |  | 1050 nM | 840 nM | 4 |

Reference: article PMC6917738, “Cooperative ordering of treadmilling filaments in cytoskeletal networks of FtsZ and its crosslinker ZapA” (Nature Communications, 2019)
